Experimental data reported in US20240206509A1 (CLARA FOODS, published 2024).

Target: bovine trypsin (bovine, UniProt P00760 24-246)
Assay: cell-based or functional assay

Sequence of bovine trypsin (P00760 24-246): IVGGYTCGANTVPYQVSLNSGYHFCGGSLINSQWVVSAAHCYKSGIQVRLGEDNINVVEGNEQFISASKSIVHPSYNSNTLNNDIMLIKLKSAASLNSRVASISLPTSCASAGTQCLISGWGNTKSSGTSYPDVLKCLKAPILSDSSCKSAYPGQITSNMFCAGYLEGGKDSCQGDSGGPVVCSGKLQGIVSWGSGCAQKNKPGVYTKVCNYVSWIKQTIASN

B1: native chicken ovomucoid (nOVD) (other)
chain: AEVDCSRFPNATDKEGKDVLVCNKDLRPICGTDGVTYTNDCLLCAYSIEFGTNISKEHDGECKETVPMNCSSYANTTSEDGKVMVLCNRAFNPVCGTDGVTYDNECLLCAHKVEQGASVDKRHDGGCRKELAAVSVDCSEYPKPDCTAEDRPLCGSDNKTYGNKCNFCNAVVESNGTLTLSHFGKC
modifications: complex branched N-linked glycosylation (that includes mannose), as in chicken egg white
- Trypsin inhibition activity: 13700 TIU/g
